B1: SWI/SNF-related matrix-associated actin-dependent regulator of chromatin subfamily B member 1, residues 181 to 248; numbered along this chain, Q12824 (parent)
chain: SQPEVLVPIRLDMEIDGQKLRDAFTWNMNEKLMTPEMFSEILCDDLDLNPLTFVPAIASAIRQQIESY

± gives the uncertainty stated by the source.

In the series the parent is B1. Description: abundance fitness (aPCA) (normalised: wild type 0, dead -1); higher = more abundant; growth selection in yeast, the domain comes from the species named. Conditions: Homo sapiens.
Turning to SQPEVLVPIRLDMEINGQKLRDAFTWNMNEKLMTPEMFSEILCDDLDLNPLTFVPAIASAIRQQIESY [D16N], the abundance fitness is -0.312 ± 0.11. Consider SQPEVLVPIRLDMEIEGQKLRDAFTWNMNEKLMTPEMFSEILCDDLDLNPLTFVPAIASAIRQQIESY [D16E], for which the abundance fitness was -0.042 ± 0.06. With SQPEVLVPIRLDMEIYGQKLRDAFTWNMNEKLMTPEMFSEILCDDLDLNPLTFVPAIASAIRQQIESY [D16Y], the abundance fitness is -0.546 ± 0.086. The figure for SQPEVLVPIRLDMEITGQKLRDAFTWNMNEKLMTPEMFSEILCDDLDLNPLTFVPAIASAIRQQIESY [D16T] is -0.801 ± 0.16; for SQPEVLVPIRLDMEIRGQKLRDAFTWNMNEKLMTPEMFSEILCDDLDLNPLTFVPAIASAIRQQIESY [D16R] it is -0.415 ± 0.044; for SQPEVLVPIRLDMEIFGQKLRDAFTWNMNEKLMTPEMFSEILCDDLDLNPLTFVPAIASAIRQQIESY [D16F] it is -0.928 ± 0.31.

For SQPEVLVPIRLDMEIQGQKLRDAFTWNMNEKLMTPEMFSEILCDDLDLNPLTFVPAIASAIRQQIESY [D16Q], the abundance fitness was -0.168 ± 0.062. With SQPEVLVPIRLDMEIIGQKLRDAFTWNMNEKLMTPEMFSEILCDDLDLNPLTFVPAIASAIRQQIESY [D16I], the abundance fitness is -0.861 ± 0.22. For the variant SQPEVLVPIRLDMEIHGQKLRDAFTWNMNEKLMTPEMFSEILCDDLDLNPLTFVPAIASAIRQQIESY [D16H], the abundance fitness was -0.247 ± 0.057.

Consider SQPEVLVPIRLDMEILGQKLRDAFTWNMNEKLMTPEMFSEILCDDLDLNPLTFVPAIASAIRQQIESY [D16L], for which the abundance fitness is -0.5 ± 0.055. Turning to SQPEVLVPIRLDMEIAGQKLRDAFTWNMNEKLMTPEMFSEILCDDLDLNPLTFVPAIASAIRQQIESY [D16A], the abundance fitness is -0.161 ± 0.035. The figure for SQPEVLVPIRLDMEIVGQKLRDAFTWNMNEKLMTPEMFSEILCDDLDLNPLTFVPAIASAIRQQIESY [D16V] is -1.02 ± 0.14; for SQPEVLVPIRLDMEISGQKLRDAFTWNMNEKLMTPEMFSEILCDDLDLNPLTFVPAIASAIRQQIESY [D16S] it is -0.39 ± 0.048. Turning to SQPEVLVPIRLDMEIGGQKLRDAFTWNMNEKLMTPEMFSEILCDDLDLNPLTFVPAIASAIRQQIESY [D16G], the abundance fitness is -0.027 ± 0.04. The same measure for SQPEVLVPIRLDMESDGQKLRDAFTWNMNEKLMTPEMFSEILCDDLDLNPLTFVPAIASAIRQQIESY [I15S]: -0.934 ± 0.47; for SQPEVLVPIRLDMEYDGQKLRDAFTWNMNEKLMTPEMFSEILCDDLDLNPLTFVPAIASAIRQQIESY [I15Y]: 0.116 ± 0.15; for SQPEVLVPIRLDMEHDGQKLRDAFTWNMNEKLMTPEMFSEILCDDLDLNPLTFVPAIASAIRQQIESY [I15H]: -0.625 ± 0.28.

With SQPEVLVPIRLDMERDGQKLRDAFTWNMNEKLMTPEMFSEILCDDLDLNPLTFVPAIASAIRQQIESY [I15R], the abundance fitness is -0.722 ± 0.12. As for SQPEVLVPIRLDMEGDGQKLRDAFTWNMNEKLMTPEMFSEILCDDLDLNPLTFVPAIASAIRQQIESY [I15G], the abundance fitness was -0.97 ± 0.25. Consider SQPEVLVPIRLDMEVDGQKLRDAFTWNMNEKLMTPEMFSEILCDDLDLNPLTFVPAIASAIRQQIESY [I15V], for which the abundance fitness is -0.516 ± 0.088. For the variant SQPEVLVPIRLDMECDGQKLRDAFTWNMNEKLMTPEMFSEILCDDLDLNPLTFVPAIASAIRQQIESY [I15C], the abundance fitness is -0.702 ± 0.19. The same measure for SQPEVLVPIRLDMEKDGQKLRDAFTWNMNEKLMTPEMFSEILCDDLDLNPLTFVPAIASAIRQQIESY [I15K]: -0.982 ± 0.47.

Take SQPEVLVPIRLDMEFDGQKLRDAFTWNMNEKLMTPEMFSEILCDDLDLNPLTFVPAIASAIRQQIESY [I15F]: the abundance fitness was -0.282 ± 0.19. The same measure for SQPEVLVPIRLDMEEDGQKLRDAFTWNMNEKLMTPEMFSEILCDDLDLNPLTFVPAIASAIRQQIESY [I15E]: -0.765 ± 0.18; for SQPEVLVPIRLDMEMDGQKLRDAFTWNMNEKLMTPEMFSEILCDDLDLNPLTFVPAIASAIRQQIESY [I15M]: -0.667 ± 0.24. Take SQPEVLVPIRLDMEADGQKLRDAFTWNMNEKLMTPEMFSEILCDDLDLNPLTFVPAIASAIRQQIESY [I15A]: the abundance fitness was -0.917 ± 0.23. In the case of SQPEVLVPIRLDMELDGQKLRDAFTWNMNEKLMTPEMFSEILCDDLDLNPLTFVPAIASAIRQQIESY [I15L], the abundance fitness was determined as 0.01 ± 0.12. As for SQPEVLVPIRLDWEIDGQKLRDAFTWNMNEKLMTPEMFSEILCDDLDLNPLTFVPAIASAIRQQIESY [M13W], the abundance fitness was -0.606 ± 0.41. On to SQPEVLVPIRLDMHIDGQKLRDAFTWNMNEKLMTPEMFSEILCDDLDLNPLTFVPAIASAIRQQIESY [E14H], for which the abundance fitness is -0.202 ± 0.18. As for SQPEVLVPIRLDMYIDGQKLRDAFTWNMNEKLMTPEMFSEILCDDLDLNPLTFVPAIASAIRQQIESY [E14Y], the abundance fitness is -0.633 ± 0.35. On to SQPEVLVPIRLDMRIDGQKLRDAFTWNMNEKLMTPEMFSEILCDDLDLNPLTFVPAIASAIRQQIESY [E14R], for which the abundance fitness was -0.733 ± 0.14.

For SQPEVLVPIRLDMVIDGQKLRDAFTWNMNEKLMTPEMFSEILCDDLDLNPLTFVPAIASAIRQQIESY [E14V], the abundance fitness was -0.199 ± 0.059.

In the case of SQPEVLVPIRLDMPIDGQKLRDAFTWNMNEKLMTPEMFSEILCDDLDLNPLTFVPAIASAIRQQIESY [E14P], the abundance fitness was -0.937 ± 0.22.

As for SQPEVLVPIRLDMMIDGQKLRDAFTWNMNEKLMTPEMFSEILCDDLDLNPLTFVPAIASAIRQQIESY [E14M], the abundance fitness is -0.065 ± 0.11. The figure for SQPEVLVPIRLDMLIDGQKLRDAFTWNMNEKLMTPEMFSEILCDDLDLNPLTFVPAIASAIRQQIESY [E14L] is -0.299 ± 0.094; for SQPEVLVPIRLDMKIDGQKLRDAFTWNMNEKLMTPEMFSEILCDDLDLNPLTFVPAIASAIRQQIESY [E14K] it is -0.334 ± 0.45; for SQPEVLVPIRLDMGIDGQKLRDAFTWNMNEKLMTPEMFSEILCDDLDLNPLTFVPAIASAIRQQIESY [E14G] it is -0.819 ± 0.16. As for SQPEVLVPIRLDMDIDGQKLRDAFTWNMNEKLMTPEMFSEILCDDLDLNPLTFVPAIASAIRQQIESY [E14D], the abundance fitness is 0.026 ± 0.15. With SQPEVLVPIRLDMWIDGQKLRDAFTWNMNEKLMTPEMFSEILCDDLDLNPLTFVPAIASAIRQQIESY [E14W], the abundance fitness was -0.96 ± 0.25. Regarding SQPEVLVPIRLDMSIDGQKLRDAFTWNMNEKLMTPEMFSEILCDDLDLNPLTFVPAIASAIRQQIESY [E14S], the abundance fitness is -0.071 ± 0.12.

The values are drawn from the Human Domainome abundance scans (Beltran et al. 2025).
